Assay results published in patent US20130129752A1.

How the values were obtained:
Experiment in all cases: cell-based or functional assay
[1] = target: human WT LFA-1 (alpha L beta 2) on cells, activation state not specified at the place cited (human) (UniProt P20701)
[2] = target: human LFA-1 on cells in the unstimulated, low-affinity conformation (human) (UniProt P20701)
[3] = target: human HA LFA-1 stably expressed on K562 cells (K562-HA LFA-1) (human) (UniProt P20701)

Chain of human WT LFA-1 (alpha L beta 2) on cells, activation state not specified at the place cited (human) (P20701 26-1170, chain 1 of 2): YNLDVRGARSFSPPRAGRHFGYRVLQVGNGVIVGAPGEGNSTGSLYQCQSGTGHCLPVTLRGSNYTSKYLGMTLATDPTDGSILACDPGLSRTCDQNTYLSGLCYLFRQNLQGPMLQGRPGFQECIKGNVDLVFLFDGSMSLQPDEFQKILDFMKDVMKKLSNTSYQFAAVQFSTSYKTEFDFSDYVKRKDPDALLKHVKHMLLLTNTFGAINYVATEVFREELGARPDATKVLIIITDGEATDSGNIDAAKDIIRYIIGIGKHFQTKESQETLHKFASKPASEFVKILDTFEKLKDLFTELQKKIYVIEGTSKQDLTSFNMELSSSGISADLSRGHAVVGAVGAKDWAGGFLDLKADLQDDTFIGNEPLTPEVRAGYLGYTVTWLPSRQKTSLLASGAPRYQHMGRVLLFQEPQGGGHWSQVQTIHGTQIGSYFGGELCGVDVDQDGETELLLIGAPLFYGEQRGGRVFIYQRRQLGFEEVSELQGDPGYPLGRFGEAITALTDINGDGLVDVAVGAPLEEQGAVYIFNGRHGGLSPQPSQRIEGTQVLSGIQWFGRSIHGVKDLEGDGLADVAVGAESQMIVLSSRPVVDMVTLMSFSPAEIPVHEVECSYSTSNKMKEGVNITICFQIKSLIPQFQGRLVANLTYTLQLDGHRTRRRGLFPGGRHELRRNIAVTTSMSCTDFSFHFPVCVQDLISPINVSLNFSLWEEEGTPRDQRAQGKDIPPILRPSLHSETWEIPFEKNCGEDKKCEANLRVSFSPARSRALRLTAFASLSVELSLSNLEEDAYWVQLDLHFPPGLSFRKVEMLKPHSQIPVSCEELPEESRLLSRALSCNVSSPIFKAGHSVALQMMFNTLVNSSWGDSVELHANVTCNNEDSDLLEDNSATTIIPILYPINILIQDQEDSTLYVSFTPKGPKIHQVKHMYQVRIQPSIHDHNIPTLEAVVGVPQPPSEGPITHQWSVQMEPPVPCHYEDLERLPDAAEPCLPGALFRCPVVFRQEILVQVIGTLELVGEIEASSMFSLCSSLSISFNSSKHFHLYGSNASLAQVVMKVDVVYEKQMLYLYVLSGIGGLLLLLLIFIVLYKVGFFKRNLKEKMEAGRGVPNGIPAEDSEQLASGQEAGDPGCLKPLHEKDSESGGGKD
Chain of human WT LFA-1 (alpha L beta 2) on cells, activation state not specified at the place cited (human) (P05107 23-769, chain 2 of 2, further chain): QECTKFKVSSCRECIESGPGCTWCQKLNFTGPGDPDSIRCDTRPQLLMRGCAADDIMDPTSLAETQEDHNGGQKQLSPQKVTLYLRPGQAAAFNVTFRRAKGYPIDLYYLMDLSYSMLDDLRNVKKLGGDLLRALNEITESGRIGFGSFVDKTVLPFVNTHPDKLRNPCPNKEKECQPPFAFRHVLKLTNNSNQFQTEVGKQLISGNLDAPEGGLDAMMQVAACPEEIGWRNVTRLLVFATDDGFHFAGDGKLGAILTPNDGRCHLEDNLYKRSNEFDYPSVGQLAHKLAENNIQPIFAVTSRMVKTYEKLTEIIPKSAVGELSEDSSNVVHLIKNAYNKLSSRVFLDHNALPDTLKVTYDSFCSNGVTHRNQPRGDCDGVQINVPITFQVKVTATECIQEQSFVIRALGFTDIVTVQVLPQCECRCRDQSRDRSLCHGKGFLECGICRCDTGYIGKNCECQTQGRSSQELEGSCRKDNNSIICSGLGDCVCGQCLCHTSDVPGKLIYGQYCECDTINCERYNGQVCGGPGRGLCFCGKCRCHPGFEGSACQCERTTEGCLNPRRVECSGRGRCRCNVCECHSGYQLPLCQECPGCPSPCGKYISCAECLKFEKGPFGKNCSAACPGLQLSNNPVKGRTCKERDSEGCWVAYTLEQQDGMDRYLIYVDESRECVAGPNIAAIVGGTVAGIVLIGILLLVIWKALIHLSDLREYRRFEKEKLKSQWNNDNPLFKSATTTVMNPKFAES
Chain of human LFA-1 on cells in the unstimulated, low-affinity conformation (human) (P20701 26-1170, chain 1 of 2): as the sequence (P20701 26-1170, chain 1 of 2) above
Chain of human LFA-1 on cells in the unstimulated, low-affinity conformation (human) (P05107 23-769, chain 2 of 2, further chain): as the sequence (P05107 23-769, chain 2 of 2, further chain) above

| Cy3+ K562 cells/Total K562 cells, % (in vivo Cy3-siRNA delivery, SCID mouse lung, flow cytometry) [1] | Cy3-siRNA delivery to PBMC subsets (flow cytometry), Cy3+ T and B lymphocytes [2] | Cy3+ K562 cells/Total K562 cells, % (in vivo Cy3-siRNA delivery, SCID mouse lung, flow cytometry) [3] | Substance |
| --- | --- | --- | --- |
| 23.3% | 1 to 2% | 88.1% | AL-57-protamine fusion protein (scFv AL-57 fused to truncated human protamine, residues 8-29, His6 tag) (from UniProt P04553 8-29) |
| 88.5% | – | 87.4% | TS1/22-protamine fusion protein (scFv TS1/22 fused to human protamine residues 8-29, His6 tag) (from UniProt P04553 8-29) |
| 4.7% | – | 4.2% | ML39-protamine fusion protein (control scFv-PF fusion protein that recognizes human ErbB2) |
